Patent US20210340252A1 (WUXI BIOLOGICS IRELAND, published 2021)
Where a chain is given by its changes, count along the chain named. Names and notes keep the numbering of the source.

B1: W3405-2.61.21-uAb-hIgG4.SPK (V87E) (antibody, V domains shown)
VH: EVQLLEAGGGPVQPGGSLRLSCAAAGFTFSNYAMSWVRQAPGKGLEWVSSISDNGGTAYHADSVQGRFTISRDNSKSTLYLQMNSLRAEDTAVYYCAKDFGDSPGYWGQGTLVTVSS
VL: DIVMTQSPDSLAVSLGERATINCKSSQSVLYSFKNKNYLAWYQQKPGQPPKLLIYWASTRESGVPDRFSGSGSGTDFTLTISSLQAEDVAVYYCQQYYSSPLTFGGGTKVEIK
notes: Human IgG4 (S228P) heavy constant region and kappa light chain; also called mutant_3
B2: W3405-2.61.21-uAb-p1-hIgG4.SPK (antibody, V domains shown)
VH: B1 VH with N54Q
VL: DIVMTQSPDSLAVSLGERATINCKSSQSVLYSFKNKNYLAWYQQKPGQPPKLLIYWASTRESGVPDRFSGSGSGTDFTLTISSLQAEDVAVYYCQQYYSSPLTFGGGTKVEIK
notes: Fully human antibody; Constant region of human IgG4 (S228P) heavy chain and human kappa light chain; also called W3405 lead antibody; p1 variant (N→Q)

Columns and labels:
CynoTIM-3.ECD.Fc = target: T1, CynoTIM-3.ECD.Fc (cynomolgus monkey, UniProt A0A2K5U3G7 22-195); experiment: SPR Biacore 8K, cynoTIM-3.ECD.Fc immobilised on CM5 chip, antibody as analyte (avidity), 1:1 fit
T1 construct: extracellular domain; also called Cynomolgus TIM-3, hFc tag; not shown: Fc tag
T1 sequence: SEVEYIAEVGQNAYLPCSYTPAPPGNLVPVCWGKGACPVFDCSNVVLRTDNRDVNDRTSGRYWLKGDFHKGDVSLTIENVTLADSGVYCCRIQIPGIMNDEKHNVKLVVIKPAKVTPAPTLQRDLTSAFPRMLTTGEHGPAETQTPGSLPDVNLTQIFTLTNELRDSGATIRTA

hTIM-3.ECD.MBPHis = target: T2, hTIM-3.ECD.MBPHis (human, UniProt Q8TDQ0 22-202); experiment: SPR Biacore 8K, antibody captured on anti-human IgG Fc CM5 chip, hTIM-3.ECD.MBPHis as analyte, 1:1 fit
T2 construct: extracellular domain; Made in Expi293 cells; also called human TIM-3.ECD.MBPAVIHIS; not shown: C-terminal MBP / AVI / 6xHis tag

Human TIM-1, His tag = target: T3, Human TIM-1, His tag (human, UniProt Q96D42 21-293, limits assumed); experiment: ELISA, plates coated with human TIM-1
T3 construct: Bought protein
T3 sequence (looked up): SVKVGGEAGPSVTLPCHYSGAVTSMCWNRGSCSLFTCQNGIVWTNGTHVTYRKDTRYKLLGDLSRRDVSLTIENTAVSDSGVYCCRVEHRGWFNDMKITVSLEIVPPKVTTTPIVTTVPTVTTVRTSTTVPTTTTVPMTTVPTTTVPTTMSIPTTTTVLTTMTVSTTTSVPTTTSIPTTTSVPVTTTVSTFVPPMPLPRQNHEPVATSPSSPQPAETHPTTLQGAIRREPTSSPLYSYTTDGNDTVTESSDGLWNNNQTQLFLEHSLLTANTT

Human TIM-4, His tag = target: T4, Human TIM-4, His tag (human, UniProt Q96H15 25-315, limits assumed); experiment: ELISA, plates coated with human TIM-4
T4 construct: Bought protein
T4 sequence (looked up): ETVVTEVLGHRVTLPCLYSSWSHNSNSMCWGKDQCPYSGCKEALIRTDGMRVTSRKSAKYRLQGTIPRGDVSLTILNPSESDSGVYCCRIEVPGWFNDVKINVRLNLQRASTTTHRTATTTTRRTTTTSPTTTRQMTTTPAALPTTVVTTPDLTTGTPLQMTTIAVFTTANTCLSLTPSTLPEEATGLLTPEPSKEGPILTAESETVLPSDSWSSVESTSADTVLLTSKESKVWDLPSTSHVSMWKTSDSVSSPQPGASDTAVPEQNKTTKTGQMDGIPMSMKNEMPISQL

[1] = target: T5, human TIM-3, full length, on cells (human, UniProt Q8TDQ0 22-301); experiment: flow cytometry on hTIM-3-expressing transfectant cells, PE goat anti-human IgG-Fc
T5 construct: whole, on cells; also called hTIM-3; cell surface human TIM-3

[2] = target: T6, cynomolgus monkey TIM-3, full length, on transfected cells (cynomolgus monkey, UniProt A0A2K5U3G7 22-294); experiment: flow cytometry on cynoTIM-3-expressing transfectant cells, PE goat anti-human IgG-Fc
T6 construct: whole, on cells; cynoTIM-3-expressing transfectant cells; also called cynoTIM-3
T6 sequence: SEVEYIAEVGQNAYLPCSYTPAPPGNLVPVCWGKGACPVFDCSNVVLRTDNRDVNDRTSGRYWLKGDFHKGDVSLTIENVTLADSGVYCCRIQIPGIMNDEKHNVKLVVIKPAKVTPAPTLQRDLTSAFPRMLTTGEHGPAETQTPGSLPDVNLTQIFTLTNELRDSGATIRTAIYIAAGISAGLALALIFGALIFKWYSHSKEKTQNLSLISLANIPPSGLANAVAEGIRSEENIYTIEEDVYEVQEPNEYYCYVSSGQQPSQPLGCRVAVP

[3] = target: human TIM-3 protein (coated on ELISA plates) (human, UniProt Q8TDQ0 22-200, limits assumed); experiment: competition ELISA on plate-coated human TIM-3 against biotinylated WBP340-BMK8, detection with SA-HRP
[4] = target: T5, human TIM-3, full length, on cells; experiment: FACS on PHA-activated human CD4+ T cells (natural TIM-3), detection with PE goat anti-human IgG Fc, MFI
[5] = target: T5, human TIM-3, full length, on cells; experiment: FACS binding titration on human TIM-3 transfected cells after incubation of the antibody in human serum
mFc-tagged human TIM-3 = target: T7, mFc-tagged human TIM-3 (human, UniProt Q8TDQ0 22-202, limits assumed); experiment: competition, flow cytometry: antibody pre-mixed with mFc-tagged human TIM-3, binding of TIM-3 to PtdSer on apoptotic Jurkat cells, PE anti-mouse IgG Fc; blockade of TIM-3 binding to PtdSer on apoptotic Jurkat cells
T7 construct: the assay text only says mFc-tagged human TIM-3; also called hTIM-3.ECD.mFc; not shown: mouse Fc tag at the C-terminus

Binder | Kd (CynoTIM-3.ECD.Fc) [nM] | koff (CynoTIM-3.ECD.Fc) [s⁻¹] | kon (CynoTIM-3.ECD.Fc) [M⁻¹ s⁻¹] | Kd (hTIM-3.ECD.MBPHis) [nM] | koff (hTIM-3.ECD.MBPHis) [s⁻¹] | kon (hTIM-3.ECD.MBPHis) [M⁻¹ s⁻¹] | binding result (Human TIM-1, His tag) | binding result (Human TIM-4, His tag) | EC50 [1] [nM] | EC50 [2] [nM] | IC50 (read off the curve) [3] [nM] | EC50 [4] [nM] | EC50 (read off the curve) [5] [nM] | IC50 (mFc-tagged human TIM-3) [nM]
B1 | 0.00452 | 7.49e-06 | 1.66e+06 | 0.153 | 3.18e-05 | 208000 |  |  |  |  |  |  |  | 
B2 | 0.006 | 1.73e-05 | 2.89e+06 | 0.138 | 3.2e-05 | 232000 | no binding | no binding | 0.13 | 0.99 | ~0.8 | 0.096 | ~0.4 | 20
